# Assay results published in patent US20170355774A1 (Regeneron, published 2017).
# Substitutions are numbered along the chain they refer to. In names and notes the source's numbering stands.
# B1: H1H14474P (antibody, human IgG1, V domains shown)
# VH: QVQLVESGGGVVQPGRSLRLSCAASGFTFSSYGMDWVRQAPGKGLEWVAVIWYPGSNKYYADSVKGRFTVSRDNSKNTLYLQMNSLRAEDTAVYYCARDGELGLDYYSGMDVWGQGTTVTVSS
# VL: DIQMTQSPSSLSASVGDRVTITCRASQGIRNDLNWYQQKPGKAPKRLINGASSLQSGVPSRFSGSGSGTEFTLTISSLQPEDFATYYCLQLNSYPRTFGQGTKVEIK
# notes: human IgG1 (H1H)
# B2: H1H14524P (antibody, human IgG1, V domains shown)
# VH: QVQLVESGGGVAQPGRSLSLSCAASGFTFSDYGMHWVRQAPGKGLEWVAVIWYAGSNKYYADSVKDRFTISRDNSKNTLYLQMRSLRVEDTAVYYCARGGELRLDYYSGLDVWGQGTTVTVSS
# VL: B1 VL with I21V, N31S, N34G, N49Y, G50A, L54F, Q79H, L91S, S93N, R96W
# notes: human IgG1 (H1H)
# B3: H1H14523P (antibody, human IgG1, V domains shown)
# VH: QVQLVESGGGVVQPGRSLRLSCEASGFTFSSYGMHWVRQAPGKGLEWVAVIWYSESNKYYTDSMKGRLTISRDNSKNTLYLQMNSLRAEDTAVYYCARGGLLGKYYYYGMDVWGQGTTVTVSS
# VL: B1 VL with T20I, G28D, N34G, N49Y, G50A, Y86F, R96Y, V104L
# notes: human IgG1 (H1H)
# B4: H1H14503P (antibody, human IgG1, V domains shown)
# VH: QVQLVESGGGVVQPGRSLRLSCEASGFTFSNYGFHWVRQAPGKGLDWVAVIWYAGSNKFYVDSVQGRFTISRDNSKQILFLQMNSLRAEDSAVYYCVRGGILGIDYYSGMDVWGQGTTVTVSS
# VL: AIQMTQSPSSLSASVGDRVTITCRASQDIRNDLGWYQQRPGKAPKFLIYSTSSLQSGVPSRFSGSGSGTDFILTISSLQPEDFATYYCLQSHNYPWTFGHGTKVEIK
# notes: human IgG1 (H1H)
# B5: H1H14491P (antibody, human IgG1, V domains shown)
# VH: QVQLVESGGGVVQPGRSLRLSCVASGFTFSDYGMHWVRQAPGKGLEWVAVIWYEGSNKYYADSVTGRFTISRDNSKNTLFLQMNSLKAEDTAEYYCAKDGGQLAYQYYYGMDVWGQGTTVTVSS
# VL: AIQMTQSPSSLSASVGDRVTLTCRASQGIRNDLGWYQQKPGKAPKSLIYAASNLQSGVPSRFSGSGSGTDFTLTISSLQPEDSATYYCLQDYNYPRTFGQGTKVEIK
# notes: human IgG1 (H1H)
# B6: H1H14495P (antibody, human IgG1, V domains shown)
# VH: QVQLVESGGGAVQPGTSLRLSCAASGFTFSSFGMHWVRQAPGKGLEWVSVIWYEGSNKYYADSVKGRFTISRDNSRNTLSLQMDSLRVEDTAVYYCARGGELGVNYYYDMDVWGQGTTVTVSS
# VL: DIQMTQSPSSLSASVGDRVTITCRASQDIKNDLGWFQQKAGKAPKRLFYATSSLQSGVPSRFSGSGSGTEFTLTISSLQPEDFATYYCLQVHSYPRTFGQGTKVEIK
# notes: human IgG1 (H1H)
# B7: H4H14530P (antibody, human IgG4, V domains shown)
# VH: QLQLQESGPGLVKPSETLSLTCTVSGGSISSTNHYWGWIRQPPGKGLEWIGNVYYIGNAYYNPSLKTGVTFSVDTSKNQFSLNLRSVTAADTAMYYCARLSNWNFLDLWGQGTLVTVSS
# VL: EIVMTQSPATLSVSPGERATLSCRASQSISSNLAWYQQKPGQAPRLLIYGASTRATGIPARFSGSGSGTEFTLTISSLQSEDFAVYYCQQFNNWLSFGGGTKVEIK
# notes: human IgG4 (H4H)
# Molecular target: T1, human GITR (amino acids M1-V241, NCBI Accession #NP_004186.1) expressed on cells (human, UniProt Q9Y5U5 26-241)
# T1 sequence: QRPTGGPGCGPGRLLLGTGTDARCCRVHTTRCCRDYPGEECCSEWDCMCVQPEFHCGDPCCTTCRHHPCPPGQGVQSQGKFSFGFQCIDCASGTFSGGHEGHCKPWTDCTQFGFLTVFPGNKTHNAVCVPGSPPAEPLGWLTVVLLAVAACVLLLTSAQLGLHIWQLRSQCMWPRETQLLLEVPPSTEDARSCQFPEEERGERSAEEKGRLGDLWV
# Assay: cell-based or functional assay
Binder,"% Activation, NF-kB-Luc, non-anchored","% Blocking, NF-kB-Luc, non-anchored","EC50, hGITR activation, NF-kB-Luc, non-anchored","IC50, blocking of hGITRL stimulation, NF-kB-Luc, non-anchored"
B1,30%,80%,1.2 nM,0.8 nM
B2,40%,80%,2.2 nM,0.7 nM
B3,40%,70%,2.5 nM,0.9 nM
B4,50%,90%,1.4 nM,0.6 nM
B5,60%,90%,2 nM,0.6 nM
B6,30%,80%,1.3 nM,0.7 nM

# Molecular target: T2, hGITR.mFc (human)
# T2 construct: soluble dimeric construct with mouse Fc; also called dimeric human GITR
# T2 chain: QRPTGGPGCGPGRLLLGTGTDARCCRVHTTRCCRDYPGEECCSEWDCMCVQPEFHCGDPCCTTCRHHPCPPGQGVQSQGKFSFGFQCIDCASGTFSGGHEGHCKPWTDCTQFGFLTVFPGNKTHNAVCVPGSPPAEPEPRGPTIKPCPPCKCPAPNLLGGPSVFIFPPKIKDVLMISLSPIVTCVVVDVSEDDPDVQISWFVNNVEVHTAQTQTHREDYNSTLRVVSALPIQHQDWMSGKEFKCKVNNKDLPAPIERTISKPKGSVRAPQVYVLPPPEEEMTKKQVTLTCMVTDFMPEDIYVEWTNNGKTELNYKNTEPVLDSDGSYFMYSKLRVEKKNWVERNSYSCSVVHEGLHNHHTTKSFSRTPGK
# Assay: SPR 37C, mAb capture
# Experimental: (§1) (Table 3). […] GITR proteins were injected over the sensor surface at a flow rate of 30 μL/minute. All Biacore binding studies were performed in a buffer composed of 0.01M HEPES pH 7.4, 0.15M NaCl, 3 mM EDTA, 0.05% v/v Surfactant P20 (HBS-ET running buffer). Antibody-reagent association was monitored for 4 minutes while dissociation in HBS-ET running buffer (10 mM HEPES, 150 mM NaCl, 3 mM EDTA, 0.05% (v/v) Surfactant P20, pH 7.4) was monitored for 10 minutes. Kinetic association (kₐ) and dissociation (kd) rate constants were determined by fitting the real-time sensorgrams to a 1:1 binding model using Scrubber 2.0c curve fitting software. Binding dissociation equilibrium constants (KD) and dissociative half-lives (t ½) were calculated from the kinetic rate constants as: KD [M]=kd/kₐ; and t_{1/2}(min)=(ln 2/(60*kd). Results are summarized in Table 3.
Binder,Kd,koff,kon,t½
B1,0.107 nM,0.00013 s⁻¹,1.21e+06 M⁻¹ s⁻¹,89.2 min
B2,0.146 nM,0.000135 s⁻¹,922000 M⁻¹ s⁻¹,85.6 min
B3,0.216 nM,0.00012 s⁻¹,555000 M⁻¹ s⁻¹,96.3 min
B4,0.137 nM,0.000154 s⁻¹,1.12e+06 M⁻¹ s⁻¹,75 min
B5,0.201 nM,0.000169 s⁻¹,842000 M⁻¹ s⁻¹,68.3 min
B6,0.0968 nM,0.00011 s⁻¹,1.14e+06 M⁻¹ s⁻¹,105 min
B7,0.63 nM,0.000185 s⁻¹,293000 M⁻¹ s⁻¹,62.6 min

# Molecular target: T3, hGITR.mmh (human)
# T3 construct: soluble monomeric construct; also called human (h) GITR.mmh; monomeric human GITR
# T3 chain: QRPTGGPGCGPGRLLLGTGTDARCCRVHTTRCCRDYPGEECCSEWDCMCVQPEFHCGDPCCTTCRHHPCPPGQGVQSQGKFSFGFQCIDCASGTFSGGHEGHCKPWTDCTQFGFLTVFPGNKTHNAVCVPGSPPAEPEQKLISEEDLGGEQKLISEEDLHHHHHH
# Assay: SPR 37C, mAb capture
# Experimental: as §1
Binder,Kd,koff,kon,t½
B1,1.96 nM,0.00116 s⁻¹,591000 M⁻¹ s⁻¹,9.9 min
B2,3.62 nM,0.00147 s⁻¹,405000 M⁻¹ s⁻¹,7.9 min
B3,8.63 nM,0.00186 s⁻¹,216000 M⁻¹ s⁻¹,6.2 min
B4,1.39 nM,0.000739 s⁻¹,532000 M⁻¹ s⁻¹,15.6 min
B5,5.06 nM,0.00162 s⁻¹,319000 M⁻¹ s⁻¹,7.2 min
B6,2.45 nM,0.00127 s⁻¹,517000 M⁻¹ s⁻¹,9.1 min
B7,5.06 nM,0.00138 s⁻¹,272000 M⁻¹ s⁻¹,8.4 min

# Molecular target: T4, mfGITR.mmh (Macaca fasicularis)
# T4 construct: soluble monomeric construct; also called Macaca fasicularis (mf) GITR.mmh; cynomolgus GITR protein
# T4 chain: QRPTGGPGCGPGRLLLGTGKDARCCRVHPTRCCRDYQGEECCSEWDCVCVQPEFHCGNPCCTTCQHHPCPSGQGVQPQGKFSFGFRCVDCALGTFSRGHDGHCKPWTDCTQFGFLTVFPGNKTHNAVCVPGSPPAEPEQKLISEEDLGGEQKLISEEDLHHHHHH
# Assay: SPR 37C, mAb capture
# Experimental: as §1
Binder,Kd,koff,kon,t½
B1,28 nM,0.00951 s⁻¹,339000 M⁻¹ s⁻¹,1.2 min
B2,158 nM,0.0189 s⁻¹,120000 M⁻¹ s⁻¹,0.6 min
B3,88.5 nM,0.0109 s⁻¹,123000 M⁻¹ s⁻¹,1.1 min
B4,20.9 nM,0.0056 s⁻¹,268000 M⁻¹ s⁻¹,2.1 min
B5,75.3 nM,0.00889 s⁻¹,118000 M⁻¹ s⁻¹,1.3 min
B6,24.5 nM,0.00723 s⁻¹,296000 M⁻¹ s⁻¹,1.6 min
B7,2.55 nM,0.000611 s⁻¹,240000 M⁻¹ s⁻¹,18.9 min

# Molecular target: T1, human GITR (amino acids M1-V241, NCBI …)
# Assay: ECL cell binding, hGITR/HEK293-D9
# Experimental: Nonspecific binding sites were blocked with 2% BSA (w/v)+PBS for 1 h at room temperature (RT). Next, serial dilutions of anti-GITR antibodies, ranging from 1.7 pM to 100 nM, were added to cells for 1 h at RT. Plates were then washed to remove unbound antibodies (AquaMax2000 plate washer, MSD Analytical Technologies) and plate-bound antibodies were detected with a SULFO-TAG™ conjugated anti-human kappa light chain IgG antibody (Jackson Immunoresearch) for 1 h at RT.
# Following washes, luminescent signals were recorded with a SECTOR Imager 6000 (MSD) instrument. Direct binding signals (relative light units, RLU) were analyzed as a function of the antibody concentration and data were fitted with a sigmoidal (four-parameter logistic) dose-response model using GraphPad Prism™ software. […] The signal detected with 100 nM antibody binding to the hGITR expressing cells versus parental cells was recorded as an indication of intensity and specificity of GITR binding.
Binder,Average Signal (RLU) at 100 nM,EC50
B1,6230 RLU,0.28 nM
B2,5740 RLU,0.21 nM
B3,6350 RLU,0.4 nM
B4,5880 RLU,0.21 nM
B5,6840 RLU,0.4 nM
B6,6470 RLU,0.43 nM
B7,4200 RLU,85 nM
